Test results taken from the DeepSol protein solubility set.

Assay: soluble on expression in E. coli; label from the status in PepcDB or PDB records

With “MRDMIYGEMALVSHTHPAAVGSTTCYEKNQQKQQQVQQIPTQPQVAHVSSNAILAAAQPFYPPPVQDSQPDRPIGYGAFGVVWSVTDPRSGKRVALKKMPNVFQNLASCKRVFREIKMLSSFRHDNVLSLLDILQPANPSFFQELYVLTELMQSDLHKIIVSPQALTPDHVKVFVYQILRGLKYLHTANILHRDIKPGNLLVNSNCILKICDFGLARTWDQRDRLNMTHEVVTQYYRAPELLMGARRYTGAVDIWSVGCIFAELLQRKILFQAAGPIEQLQMIIDLLGTPSQEAMKYACEGAKNHVLRAGLRAPDTQRLYKIASPDDKNHEAVDLLQKLLHFDPDKRISVEEALQHRYLEEGRLRFHSCMCSCCYTKPNMPSRLFAQDLDPRHESPFDPKWEKDMSRLSMFELREKMYQFVMDRPALYGVALCINPQSAAYKNFASSSVAQASELPPSPQAW” the “soluble on expression in E. coli” value was “not soluble”.

With “MRKILVVGAGQSGLQLALGLQSHGYEVTLMSNRTADEIRTGRVMSTQCMFHTALQHERDLQLNFWESQAPKIEGLGVSVAAPGSFDPGPSQRAIDWLGHLDGFAQSVDQRVKMAGWMETFAQRGGQLVIHGAAVGDLDYFSRAYDLVLVSAGKGELVQMFGRDAERSPYSEPQRALAVAYVHGMGPRPEHPETEAVRCNLVPGVGEMFIMPTFTTSGRADILFWEGIPGGPLDAFKDVKDPAEHLSLTLELMEKFLPWEYARATKVELTDAGGTLAGRYAPTVRNPVGRLPGGGAVLGVADVVVANDPITGQGSNSASKCAASYLASIIEHGDQEFDETWMRQTFDRYWETAQHVTKWTNTMLAPPPEHILNLFGAATQLQPIADRFANGFNDPSDFENFFYDPAKTEGYLAEVSGAAGALEHHHHHH” the “soluble on expression in E. coli” value was “not soluble”.

With “FTPVTKAAVINTFDGVADYLIRYKRLPNDYITKSQASALGWVASKGDLAEVAPGKSIGGDVFSNREGRLPSAGSRTWREADINYVSGFRNADRLVYSSDWLIYKTTDHYATFTRIR” the “soluble on expression in E. coli” value was “soluble”.

With “MTNIERLERCADIMRRRWIYDPEAGLLFSRETKDVIKGSMTNKGHLVVTVHEGKFKVTLTYQKACYVYTYGAYDETLYEVHHVNLNKQDNRIKNIRLMPKEKHRRIHKNVRKLIRLGHTQWLQPQLIEQSL” the “soluble on expression in E. coli” value was “not soluble”.

With “MADSTKAGLKKPAFTKVDQLRPGTSGHNVNVKIVSTKMVLQKGRADGPQARQLRISECIVGDETGVIVFTARNDQVDLMKEGSTVTLRNAKIDMYKGSMRLAVDKWGRVEVTEPASFKVKEDTNMSLIEYELVNVVE” the “soluble on expression in E. coli” value was “soluble”.

For “TEELEKAYDSLKESEEHLRLTLEGSKAGMWMWDLRANWKITPQMNALLGRSESSPIKYEEFISMIHPEDQERVAQAWNKAIECKDFYDQEYRIFLPDGSIHWLSSKGSVIELHSGIRQLMGITTDIT”, the “soluble on expression in E. coli” value was “not soluble”.

For “MSSQRWLWRNQHSVQTNIGSREKDLKITKTKKIKKKHERAYELLAEAAYSDPFAALGPFIDDGEGSLRVWMPGANKVELLVNGEPRVALERDGDSGFILKEQRDLHLTHYRLAVDWNGVEQIIDDPYQYHNIYQEYEHLHTPKDM”, the “soluble on expression in E. coli” value was “not soluble”.

With “MSLESSDDAPLPTDVPKDAAEALVCFLTQHVRALMSPHADPVPSCPRCGGTQIHKKGYAPLQTGPLPTYQCEGCDHYFSRLSGTPLSGHRIRRSAEELITMLPQAIGCPEAARRLGVMERTIRNTVRMFRRWVLELDPSGHHERHIRLGGRFTAVRDQAPPVVDEQIAYEDVALTAKLLEDFETIHSNKHFPMPDCPACGADRLVTKGTFSGFARFKCASCGKQFNRRTGTPFTRNRKVYERQRALIRYLGLPLSITQLAEIVGGDHGNVARLIREFRERCDQLDPTGQLSHRIRAGARPAEDTPCIQCGARHVRFDVRGITPGKCAVCGRLISMRRAIIERDGVLEVGPWQWAEQLQQEGHHHHHH” the “soluble on expression in E. coli” value was “not soluble”.

In the case of “MSLARHRGKTEKLYVIPLGGLGEIGKNCMVVQYGDDIIVIDAGLAFPEEEMLGIDIVIPDFTYLLENREKVRGILITHGHEDHIGAVAYLLRNINIPVYATRLTLGLIEGKLAEMGMKLPAESKAVRAGDQVKLGPFTCEFIRVNHSIPDACAIAVTTPVGTILHTGDFKFDQTPIDGEFADYRRLTELGKRGILALLSDSTNAERPGYTPSERSVRPNMERVFREAKGRILMATFASNVHRIQQAIELAAEMGKKVAVVGRSMENTVRIALELGYLNVPEGTMVTVDELRRVPLNQQVILTTGSQGEPMAALSRMAVNDHKAIELYPGDTVLFAATAIPGNEKSVARTVNNLYRRGAEVIYDRSAGVHVSGHASQEEQKLMINLTRPKFFVPIHGEYRMLLKHKQLAEACGIPSENILIGENGTIFEFTRNSAQITGKVTSGQVLVDGLGVGDVGNIVLRDRKQLAQEGILIVVVAVDREEGTIVGGPDMVSRGFVYVRESEGLLDEAKERVKRALADQMQRGLPEWAVLKSSIRDVLSKYLYDKTHRRPMILPIIIEIEGHHHHHH”, the “soluble on expression in E. coli” value was “soluble”.

For “MRARIYQPARNAMTSGMAKTRKWVLEYAPGSAREVDPLMGWTSSSDTQSQVRLRFDSKEEALDYARAHGIDAVVTEPHKRKPNLRARGYGENFATDRRGPWTH”, the “soluble on expression in E. coli” value was “soluble”.

In the case of “MGSDKIHHHHHHMSVSPEFTRGKIHDVVVKPLGKFLDERGWLAELFRSDETDPATMPVMAYVSMTRPGIVRGPHEHVDQTDWFCFIGPSNFKVYLWDSRPDSPTHGVKQTLFAGIDAPMSVIVPPGVVHAYKNVGGVDGIVFNAPNRLYAGEGKSSPVDEIRHEDVAGSPFILD”, the “soluble on expression in E. coli” value was “not soluble”.

In the case of “MSASIRDAGVADLPGILAIYNDAVGNTTAIWNETPVDLANRQAWFDARARQGYPILVASDAAGEVLGYASYGDWRPFEGFRGTVEHSVYVRDDQRGKGLGVQLLQALIERARAQGLHVMVAAIESGNAASIGLHRRLGFEISGQMPQVGQKFGRWLDLTFMQLNLDPTRSAP”, the “soluble on expression in E. coli” value was “soluble”.

With “NATERSPVIIGLAGFTGSGRSFLNRTYTSMDFLTALKEIDEKRSDLGFIIVLPDVMTGLYGNQYLNSSAVGNYEDFIVKDIVGIIRERFGERPMGVFGKSSGGFGSYTLAVRHPDIFSGFIDVSGDSAFEYVYIPDFPDTYKEIRRQGLYRWFDEIHRKLSLQNQDIKVANIVAMSAFYSPDPGSPMGISLPFDIETGELIESVWNRWLKFDPARNIADYMDVLRDMAIFLQVGAKDEFHTDIGIGTMHRKLEQENVVHFYEVYDSGHFGIDYFYLKSLPLLIELIEQ” the “soluble on expression in E. coli” value was “not soluble”.

With “MFNRGNTRVDVSSEPGTSGRYPERMIDQLPANYPCAKLKLDQFFLQWLSEHQDLVSTLVEDIQAGRPIHAPTAPVGPSPLSPSTAHMIFASTPPISPSKTRSPGTPLSPARRSTTTLGGSQKRGPLVSIPQFYFPTQSSNAGQGSDPATRDFLQRAEAAYKTDGGAAGLGQKAFVKMMQEVCELPSMVAYSLFKRLTGCEAGEEEGAAVPRDTFIKFWTGRGLVTAPPPKRAFDSLRPDGQDYLTFADFWPMMECVLRYHPGLEFLAETQEFQRKYAETVIHRIFYSLNKCGSGRLTFREFRSGELMDALYALDRENDINKILKFFSYEHFYVIYCKFWELDQDHDFQLDKTDLAHYSNCALSYVIVDRIFEEAPRKFKAGTPPGKMCYEDFVWFILSEEDKTTDTALTYWFRCVDLDGDGVIRPREMLYFYEEQLRRLEGWNQEPVQFEDLLCQLHDMLSPAKEGAFTLRDLKRTKPQSGLFFSSLFSLHKFVGFENRDPFAQRAEAAEFTGLSDWDKFAKIEYFRLASEDDQQDTAGGAMDTDEQI” the “soluble on expression in E. coli” value was “not soluble”.

In the case of “MSLIARRNPIEQLPAIAQDPDKFGVLLSAAEFRTHLVESIRQARKRIYLVALYLENDDAGREILTELYAAKQRNPGLEIHICVDWHRAQRGLIGAAESEGNAAMYRDFAQQHEHCIPVYGIPVRGREVFGVLHLKGFIIDDQVIYSGASLNNVYLQFHGRYRFDRYHTLENAELADSMVHFIQQEMLAHPAVNNLACGSKPTTKEIKSDIRQFRASLAQANYQFAKQKVNEGQVAVTPLVGLGRRRNRLNQSIIQLLASAKDEVFICTPYFNFPPSIAKEVKKALRRGVKVHIVIGDKTANDFYIAPEEPFKTIGGLPYLYELNLRRFAKANEAHIASRKLSIHLWKHENHSFHLKGIWVDKRYMLITGNNLNPRAWKLDLENAILIRDDYHHLTTKFEAEIDNILQHTQLICTYKQIEKPEHYPEKVQRLVRRIMRLKADRVLKQILEGHHHHHH”, the “soluble on expression in E. coli” value was “not soluble”.

For “MEYWHYVETTSSGQPLLREGEKDIFIDQSVGLYHGKSKILQRQRGRIFLTSQRIIYIDDAKPTQNSLGLELDDLAYVNYSSGFLTRSPRLILFFKDPSSKDELGKSAETASADVVSTWVCPICMVSNETQGEFTKDTLPTPICINCGVPADYELTKSSINCSNAIDPNANPQNQFGVNSENICPACTFANHPQIGNCEICGHRLPNASKVRSKLNRLNFHDSRVHIELEKNSLARNKSSHSALSSSSSTGSSTEFVQLSFRKSDGVLFSQATERALENILTEKNKHIFNQNVVSVNGVDMRKGASSHEYNNEVPFIETKLSRIGISSLEKSRENQLLNNDILFNNALTDLNKLMSLATSIERLYKNSNITMKTKTLNLQDESTVNEPKTRRPLLILDREKFLNKELFLDEIAREIYEFTLSEFKDLNSDTNYMIITLVDLYAMYNKSMRIGTGLISPMEMREACERFEHLGLNELKLVKVNKRILCVTSEKFDVVKEKLVDLIGDNPGSDLLRLTQILSSNNSKSNWTLGILMEVLQNCVDEGDLLIDKQLSGIYYYKNSYWPSHI”, the “soluble on expression in E. coli” value was “soluble”.

For “MLGKGGKRKFDEHEDGLEGKIVSPCDGPSKVSYTLQRQTIFNISLMKLYNHRPLTEPSLQKTVLINNMLRRIQEELKQEGSLRPMFTPSSQPTTEPSDSYREAPPAFSHLASPSSHPCDLGSTTPLEACLTPASLLEDDDDTFCTSQAMQPTAPTKLSPPALLPEKDSFSSALDEIEELCPTSTSTEAATAATDSVKGTSSEAGTQKLDGPQESRADDSKLMDSLPGNFEITTSTGFLTDLTLDDILFADIDTSMYDFDPCTSSSGTASKMAPVSADDLLKTLAPYSSQPVTPSQPFKMDLTELDHIMEVLVGS”, the “soluble on expression in E. coli” value was “soluble”.

In the case of “MGSDKIHHHHHHMTELLARNADCIVWLARYMERAENLARILGVAETFARDRAGRNWLAVVQINADEERFFARHRVADARTVPHFYILDPDNPNSILSSIKAARENARTLRPMISIEMWRQINRMNTWMGGLSDNAVAPANLAALCEEIKEACQLHVGITEGTFYRDQAHYFYHLGKSIERADQTTRLLDIKYHTLLPRPEDVGSALDISHWNALLKAVAGYQASRRVLAGKITPRSVAAFLLFSDSFPRSVILCVRQMDWLMTQLRTRYHLRGGVKALELLDGLRAALTDHDIDHVIDHGLHEFIDWVQSQLMAIFAEIQDSFCVTRQPSQSQSQ”, the “soluble on expression in E. coli” value was “not soluble”.

For “MGSDKIHHHHHHMANKNLYGGNPERGWCMVLPGFFSEDIRVDNHAANGRSSKSFISEGRWAKVISQVKKGDYVFIQFGHNDEKADSARHTDPGTTFDDNLRRFVNETRVKGGIPVLFNSIVRRNFVQPEDASIATDARRAPGEQELPKEVNVLYDTHGAYLDSPRNVAKEMGVAFIDMNKITHDLVQGLGPAESKKLFMFVEPEKVPAFPKGREDNTHLNVYGARTIAGLTVDAIAKEIPELAKYVRHYDYVVAQDGTGDFFTVQEAINAVPDFRKNVRTTILVRKGTYKEKIIIPESKINISLIGEDGVVLTNDDFANKKNVFGENMGTSGSSSCYIYAPDFYAENITFENSAGPVGQAVACFVSADRAFFKNCRFLGYQDTLYTYGKHSRQYYEDCYIEGTVDFIFGWSVAVFNRCHIHSKRDGYVTAPSTDQGKKYGYVFYDCRLTADPDVAKVYLSRPWRPYAQAVFIRCELGKHILPEGWHNWGKKEAEKTVFYAEYDSHGEGANPKARAAFSRQLKNLKGYEMETVLAGEDGWNPLKNDSVK”, the “soluble on expression in E. coli” value was “not soluble”.
